Assay results from publication PMC7686362, “Recent evolution of a TET-controlled and DPPA3/STELLA-driven pathway of passive DNA demethylation in mammals” (Nature Communications, 2020).

T1: mUHRF1 C-terminally tagged with GFP- and 6xHis-tag (mouse, UniProt Q8VDF2 1-782)
T1 construct: UHRF1, mouse (mUHRF1); also called UHRF1-eGFP; recombinant UHRF1-GFP; source: HEK 293T cells, purified (Ni-NTA beads); not shown: GFP, C-terminal, kept
T1 sequence (looked up): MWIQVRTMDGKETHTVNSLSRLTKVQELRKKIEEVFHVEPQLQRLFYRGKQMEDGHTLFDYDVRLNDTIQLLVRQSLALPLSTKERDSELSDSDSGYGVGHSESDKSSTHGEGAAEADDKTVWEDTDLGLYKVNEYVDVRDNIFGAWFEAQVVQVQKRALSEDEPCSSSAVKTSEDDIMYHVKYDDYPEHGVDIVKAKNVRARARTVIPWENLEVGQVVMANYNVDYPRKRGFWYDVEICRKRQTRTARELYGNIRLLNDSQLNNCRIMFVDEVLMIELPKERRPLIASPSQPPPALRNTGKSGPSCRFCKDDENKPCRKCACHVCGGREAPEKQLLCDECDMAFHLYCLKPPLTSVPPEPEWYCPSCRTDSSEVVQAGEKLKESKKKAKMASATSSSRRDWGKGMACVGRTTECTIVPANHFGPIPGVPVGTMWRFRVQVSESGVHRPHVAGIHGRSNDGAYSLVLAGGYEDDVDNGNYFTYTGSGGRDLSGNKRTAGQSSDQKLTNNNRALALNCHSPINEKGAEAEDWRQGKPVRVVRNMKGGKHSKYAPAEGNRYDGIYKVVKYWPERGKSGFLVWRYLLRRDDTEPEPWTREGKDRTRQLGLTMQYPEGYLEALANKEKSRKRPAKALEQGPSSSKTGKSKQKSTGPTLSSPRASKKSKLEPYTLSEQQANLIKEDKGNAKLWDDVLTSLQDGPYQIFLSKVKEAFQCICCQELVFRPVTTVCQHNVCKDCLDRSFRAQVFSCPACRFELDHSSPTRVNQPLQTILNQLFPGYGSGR


How the values were obtained:
[1] = biological target: endogenous UHRF1-GFP (Uhrf1 locus tagged with GFP in mouse ESCs) (mouse (endogenous in J1 ESCs)) (UniProt Q8VDF2)
[2] = biological target: T1, mUHRF1 C-terminally tagged with GFP- …; assay: MST; 200 nM UHRF1-GFP-6xHis mixed with 0.15 nM to 5 µM GST-DPPA3, 30 min on ice; Monolith NT.115, 80% LED and 80% MST power; conditions: both partners purified

Chain of DPPA3-KRR-mScarlet (K85E/R85E/R87E as printed) (Q8QZY3 whole entry K85E/R87E, stated change not applied): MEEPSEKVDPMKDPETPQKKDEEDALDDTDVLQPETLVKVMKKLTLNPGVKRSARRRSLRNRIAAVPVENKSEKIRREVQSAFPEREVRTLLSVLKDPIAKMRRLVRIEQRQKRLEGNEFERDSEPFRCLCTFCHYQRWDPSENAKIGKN

Row | Molecule | mobile fraction of UHRF1-GFP by RICS in live ESCs expressing DPPA3-KRR [1] | Kd [2]
1 | DPPA3-KRR-mScarlet (K85E/R85E/R87E as printed) (from UniProt Q8QZY3 1-150) (natural protein) | 32.4% | 
2 | GST-mDPPA3 wild-type (natural protein, mouse, UniProt Q8QZY3 1-150, looked up, DPPA3, mouse, fragment corresponding to the full-length protein amplified from mouse DPPA3 cDNA, in pGEX4T-3; also called GST-DPPA3 WT; D3^WT; source: E. coli BL21-CodonPlus, purified (Glutathione Sepharose, PD10 desalting)) MEEPSEKVDPMKDPETPQKKDEEDALDDTDVLQPETLVKVMKKLTLNPGVKRSARRRSLRNRIAAVPVENKSEKIRREVQSAFPKRRVRTLLSVLKDPIAKMRRLVRIEQRQKRLEGNEFERDSEPFRCLCTFCHYQRWDPSENAKIGKN |  | 440 nM
